The results in this text go back to PMC3626604, “The C-Type Lectin of the Aggrecan G3 Domain Activates Complement” (PLoS ONE, 2013).

The experiment deals with T1, factor H (human (endogenous in normal human serum), UniProt P08603 19-1231).
T1 construct: complement factor H; also called FH
The experiment can be described thus: ELISA; proteins coated (G3 fragments 5 µg/ml, fibromodulin 2.5 µg/ml); heat-inactivated normal human serum diluted in 50 mM Hepes pH 7.4, 150 mM NaCl, 2 mM CaCl2, 50 µg/ml BSA; 1 h at RT; detected with anti-FH. The settings on record: one partner purified. (In an ELISA, binding on a coated surface is turned into a signal by an enzyme label.)

T1 sequence (P08603 19-1231): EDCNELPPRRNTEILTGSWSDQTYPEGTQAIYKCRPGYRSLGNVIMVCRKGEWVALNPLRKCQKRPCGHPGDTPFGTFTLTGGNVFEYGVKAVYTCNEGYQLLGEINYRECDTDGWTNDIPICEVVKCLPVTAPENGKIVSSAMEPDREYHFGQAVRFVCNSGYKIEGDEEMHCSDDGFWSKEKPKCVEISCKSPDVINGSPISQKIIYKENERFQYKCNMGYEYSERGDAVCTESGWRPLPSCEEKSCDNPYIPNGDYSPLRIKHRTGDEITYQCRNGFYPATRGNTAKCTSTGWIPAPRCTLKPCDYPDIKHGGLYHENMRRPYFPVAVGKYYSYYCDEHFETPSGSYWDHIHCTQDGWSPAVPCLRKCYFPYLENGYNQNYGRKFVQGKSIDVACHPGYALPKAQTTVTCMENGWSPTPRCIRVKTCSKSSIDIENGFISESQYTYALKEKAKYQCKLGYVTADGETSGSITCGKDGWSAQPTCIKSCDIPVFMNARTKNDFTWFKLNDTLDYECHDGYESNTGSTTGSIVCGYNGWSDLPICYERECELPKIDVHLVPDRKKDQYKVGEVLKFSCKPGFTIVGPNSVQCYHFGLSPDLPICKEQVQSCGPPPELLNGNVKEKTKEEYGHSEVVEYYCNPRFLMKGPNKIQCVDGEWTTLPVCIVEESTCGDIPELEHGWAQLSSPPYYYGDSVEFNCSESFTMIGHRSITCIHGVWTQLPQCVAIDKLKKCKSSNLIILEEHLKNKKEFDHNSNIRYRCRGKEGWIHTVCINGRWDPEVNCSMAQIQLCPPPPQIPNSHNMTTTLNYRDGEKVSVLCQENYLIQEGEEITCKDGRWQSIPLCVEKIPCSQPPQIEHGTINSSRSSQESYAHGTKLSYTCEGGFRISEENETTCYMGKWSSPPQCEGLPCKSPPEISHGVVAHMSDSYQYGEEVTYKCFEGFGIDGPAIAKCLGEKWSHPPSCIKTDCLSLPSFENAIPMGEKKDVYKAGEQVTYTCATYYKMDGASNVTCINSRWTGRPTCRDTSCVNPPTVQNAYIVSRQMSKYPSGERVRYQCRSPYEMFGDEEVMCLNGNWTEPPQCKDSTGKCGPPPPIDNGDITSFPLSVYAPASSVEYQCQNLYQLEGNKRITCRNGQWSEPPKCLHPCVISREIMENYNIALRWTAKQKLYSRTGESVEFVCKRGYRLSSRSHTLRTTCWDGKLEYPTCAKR

B1: recombinant bovine fibromodulin (natural protein, UniProt P13605 19-376, looked up)
chain: QYEEDSHWWFQFLRNQQSTYDDPYDPYPYEPYEPYPYGGEEGPAYAYGSPPQPEPRDCPQECDCPPNFPTAMYCDNRNLKYLPFVPSRMKYVYFQNNQISSIQEGVFDNATGLLWIALHGNQITSDKVGKKVFSKLRHLERLYLDHNNLTRIPSPLPRSLRELHLDHNQISRVPNNALEGLENLTALYLHHNEIQEVGSSMKGLRSLILLDLSYNHLRKVPDGLPSALEQLYLEHNNVFSVPDSYFRGSPKLLYVRLSHNSLTNNGLASNTFNSSSLLELDLSYNQLQKIPPVSTNLENLYLQGNRINEFSISSFCTVVDVMNFSKLQVLRLDGNEIKRSAMPADAPLCLRLASLIEI
notes: fibromodulin, bovine; source: recombinant
Regarding B1, the binding result is “binds”.
